This passage reports signal-to-noise ratio results from patent US20210302413A1 (Johns Hopkins, published 2021).

This assay deals with T1, endogenous human zinc transporter 8 (ZnT8) in EndoC-βH1 cells (human, UniProt Q8IWU4 1-369).
T1 construct: whole, on cells; Intracellular membrane protein, probed in fixed and permeabilised cells (in-cell ELISA), in SDS lysates (immunoblot) or in liposomes (SUVs) made from the cells; On blots two natural splice variants (A and B) are detected; also called endogenous ZnT8; SLC30A8 product
T1 sequence (looked up): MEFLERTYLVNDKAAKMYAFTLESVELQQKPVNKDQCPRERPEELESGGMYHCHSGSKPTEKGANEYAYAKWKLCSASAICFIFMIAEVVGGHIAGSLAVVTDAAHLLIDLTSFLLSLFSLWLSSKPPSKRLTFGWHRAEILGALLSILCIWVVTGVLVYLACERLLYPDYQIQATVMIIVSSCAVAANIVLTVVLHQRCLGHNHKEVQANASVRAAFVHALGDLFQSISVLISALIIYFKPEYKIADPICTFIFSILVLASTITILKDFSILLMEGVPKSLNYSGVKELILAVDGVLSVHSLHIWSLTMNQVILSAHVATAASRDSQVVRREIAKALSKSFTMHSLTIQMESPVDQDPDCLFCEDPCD
The assay can be described thus: in-cell ELISA, 95×10^3 EndoC-βH1 cells against the same number of rat INS-1E cells. On the procedure:
Next, mAb20 or a rabbit anti-HLA-I antibody (Proteintech, Cat. #15240-1-AP) was 1:600 or 1:60 diluted to Permeabilization/Wash Buffer I plus 0.5% BSA. Cells in each well were incubated with the diluted antibody solution for 2 hr at 37° C., washed once, and then exposed to a HRP-conjugated anti-mouse IgG (H+L) (Invitrogen, Cat. #62-6520) or anti-rabbit IgG (H+L) antibody (Invitrogen, Cat. #62-6120) in a 1:3000 dilution in Permeabilization/Wash Buffer I plus 0.1% BSA. After 1 hr incubation with the secondary antibody at RT, cells were washed three times to remove unbound antibodies before adding SuperSignal ELISA Femto Substrate (ThermoFisher Scientific, Cat. #37075). The HRP reaction was terminated at 5 min by transferring the reaction mixture to a 96-well opaque microplate for chemiluminescence quantification on a FlexStation-3 multi-mode microplate reader.
Assay validation. A ZnT8-specific ELISA was developed to track the endogenous ZnT8 level in EndoC-βH1 cells immobilized to a 96-well plate by paraformaldehyde fixation, followed by immunostaining and horseradish peroxidase (HRP) chemiluminescence. The non-specific background was estimated using rat insulinoma INS-1E and human HEK293 cells as negative controls. […] The signal-to-noise ratio at 95×10^3 cells was 3.9 (Z′ score=0.8) over a background detected from a same number of INS-1E cells (FIG. 1A). […]
A general note: In an ELISA, binding on a coated surface is turned into a signal by an enzyme label.

B1: anti-ZnT8 monoclonal antibody mAb20 (antibody, mouse IgG1, kappa, V domains shown)
VH: QIQLVQSGPELKKPGETVKISCKASGYIFTNYPMHWVKQAPGKGLKWMGWINTYSGVPTHADDFKGRFAFSLETSANSAFLQINNLKNEDTATYFCTRSRITPTGGYAMDYWGQGTSVTVSS
VL: DVVMTQTPLSLPVSLGDQASISCRSSQSLVHSNGNTYLHWYLQKPGQSPNLLISKVSNRFSGVPERFSGSGSGTDFTLKISRVEAEDLGVYFCSQNTHVPWTFGGGTKLEIKR
notes: Mouse monoclonal antibody; Used free (1:600 of a 1 mg/ml stock), biotinylated, or crosslinked to Dynabeads through NHS-PEG5K-NHS; also called mouse mAb20; biotinylated mAb20
On to B1, for which the signal-to-noise ratio came out at 3.9.
